Measurements from US7288251 (ABGENIX, dated 2007).

T1: dog CD40 on blood cells (dog, UniProt Q7YRL5 21-274)
T1 construct: whole, on cells; also called dog blood
T1 sequence (looked up): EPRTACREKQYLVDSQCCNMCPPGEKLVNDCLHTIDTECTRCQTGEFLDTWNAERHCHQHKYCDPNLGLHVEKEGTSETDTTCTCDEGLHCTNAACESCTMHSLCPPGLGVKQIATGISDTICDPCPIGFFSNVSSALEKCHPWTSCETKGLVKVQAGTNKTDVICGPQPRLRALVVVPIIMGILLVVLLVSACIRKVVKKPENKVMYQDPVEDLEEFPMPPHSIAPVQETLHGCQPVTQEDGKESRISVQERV

T2: rat CD40 on blood cells (rat, UniProt A6JXD6 20-289)
T2 construct: also called rat blood
T2 sequence: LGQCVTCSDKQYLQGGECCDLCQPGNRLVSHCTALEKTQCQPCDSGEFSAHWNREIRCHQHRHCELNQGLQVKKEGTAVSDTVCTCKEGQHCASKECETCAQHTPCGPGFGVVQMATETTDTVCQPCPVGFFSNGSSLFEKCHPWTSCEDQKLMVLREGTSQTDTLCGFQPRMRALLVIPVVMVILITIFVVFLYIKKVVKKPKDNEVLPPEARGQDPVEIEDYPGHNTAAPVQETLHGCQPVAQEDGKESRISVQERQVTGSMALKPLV


How the values were obtained:
human CD40 on cells [1] = target: T3, human CD40 on cells (human, UniProt P25942 21-277); assay: cell-based or functional assay
human CD40 on cells [2] = target: T3, human CD40 on cells; assay: cell-based or functional assay; remark: listed apart in the source
4-1BB/Ig = target: T4, 4-1BB/Ig; assay: ELISA, 4-1BB/Ig coated, antibody 1 µg/ml
T4 construct: also called CD137
Procedure: (§1) We then washed the plate with PBST (PBS+0.1% Tween-20) three times and blocked the plate with PBST+0.5% BSA at 150 µl/well. We incubated the plate at room temperature for 1 hour and then washed with PBST three times. […] We incubated the plate at room temperature for 1 hour then washed with PBST three times. […] We incubated the plate at room temperature for 1 hour and then washed with PBST three times. […] We then read the plate using a SpectraMax™ plate reader.

human CD40 on cells [3] = target: T3, human CD40 on cells; assay: cell-based or functional assay; remark: listed apart in the source
human CD40 on cells [4] = target: T3, human CD40 on cells; assay: cell-based or functional assay; remark: listed apart in the source
dog CD40 on blood cells = target: T1, dog CD40 on blood cells; assay: FACS, whole blood
[5] = target: T5, mouse CD40 on blood cells (mouse, UniProt P27512 20-289); assay: FACS, whole blood
T5 construct: whole, on cells; also called mouse blood

rat CD40 on blood cells = target: T2, rat CD40 on blood cells; assay: FACS, whole blood
RANK/Ig = assay: ELISA, RANK/Ig coated, antibody 1 µg/ml
Procedure: as §1

TNFR-2/Ig = target: T6, TNFR-2/Ig; assay: ELISA, TNFR-2/Ig coated, antibody 1 µg/ml
T6 construct: also called Tumor Necrosis Factor Receptor-2
Procedure: as §1

TNFR-1/Ig = target: T7, TNFR-1/Ig; assay: ELISA, TNFR-1/Ig coated, antibody 1 µg/ml
T7 construct: also called Tumor Necrosis Factor Receptor-1
Procedure: as §1

[6] = target: T8, human CD40-IgG1 Fc fusion protein (human, UniProt P25942 21-193); assay: SPR BIAcore 3000, CD40-Ig immobilised, antibody injected
T8 construct: extracellular domain; also called CD40-Ig fusion protein; CD40-IgG fusion protein; not shown: human IgG1 Fc
T8 sequence (P25942 21-193): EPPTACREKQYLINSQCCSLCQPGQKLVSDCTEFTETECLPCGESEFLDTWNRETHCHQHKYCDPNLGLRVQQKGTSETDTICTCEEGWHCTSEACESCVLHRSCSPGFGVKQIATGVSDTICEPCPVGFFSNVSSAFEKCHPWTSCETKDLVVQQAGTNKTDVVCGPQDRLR

Chain of RANK/Ig (Q9Y6Q6 whole entry): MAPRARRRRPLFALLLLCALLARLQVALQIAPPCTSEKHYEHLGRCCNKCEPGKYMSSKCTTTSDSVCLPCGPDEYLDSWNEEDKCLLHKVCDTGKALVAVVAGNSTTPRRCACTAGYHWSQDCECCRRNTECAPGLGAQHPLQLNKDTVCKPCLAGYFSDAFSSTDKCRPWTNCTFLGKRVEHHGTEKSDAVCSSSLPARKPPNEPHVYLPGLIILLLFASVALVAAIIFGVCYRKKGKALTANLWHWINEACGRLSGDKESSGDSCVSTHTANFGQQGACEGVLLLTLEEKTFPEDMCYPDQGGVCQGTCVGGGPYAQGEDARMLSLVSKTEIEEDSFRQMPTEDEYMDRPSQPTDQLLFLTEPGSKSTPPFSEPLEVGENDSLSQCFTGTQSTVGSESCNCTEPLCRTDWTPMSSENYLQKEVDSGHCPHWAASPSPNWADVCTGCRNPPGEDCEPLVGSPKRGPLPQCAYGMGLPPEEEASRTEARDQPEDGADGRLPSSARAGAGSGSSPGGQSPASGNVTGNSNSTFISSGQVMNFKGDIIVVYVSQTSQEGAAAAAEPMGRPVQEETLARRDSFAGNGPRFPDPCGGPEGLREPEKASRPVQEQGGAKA
T6 sequence (P20333 23-257): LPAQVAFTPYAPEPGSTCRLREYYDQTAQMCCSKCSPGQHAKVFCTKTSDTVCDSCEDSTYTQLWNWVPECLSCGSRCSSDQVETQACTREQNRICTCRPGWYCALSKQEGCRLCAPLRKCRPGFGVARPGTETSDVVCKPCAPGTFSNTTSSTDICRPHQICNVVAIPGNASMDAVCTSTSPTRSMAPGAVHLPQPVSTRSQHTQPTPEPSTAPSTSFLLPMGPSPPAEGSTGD
T3 sequence (P25942 21-277): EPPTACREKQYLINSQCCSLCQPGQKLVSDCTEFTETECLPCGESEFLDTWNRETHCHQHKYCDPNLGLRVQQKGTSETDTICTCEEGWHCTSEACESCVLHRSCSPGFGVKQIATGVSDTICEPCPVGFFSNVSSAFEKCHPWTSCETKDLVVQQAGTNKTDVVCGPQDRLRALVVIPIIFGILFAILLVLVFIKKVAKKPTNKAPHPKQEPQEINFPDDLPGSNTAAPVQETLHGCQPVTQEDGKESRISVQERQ
T5 sequence (P27512 20-289): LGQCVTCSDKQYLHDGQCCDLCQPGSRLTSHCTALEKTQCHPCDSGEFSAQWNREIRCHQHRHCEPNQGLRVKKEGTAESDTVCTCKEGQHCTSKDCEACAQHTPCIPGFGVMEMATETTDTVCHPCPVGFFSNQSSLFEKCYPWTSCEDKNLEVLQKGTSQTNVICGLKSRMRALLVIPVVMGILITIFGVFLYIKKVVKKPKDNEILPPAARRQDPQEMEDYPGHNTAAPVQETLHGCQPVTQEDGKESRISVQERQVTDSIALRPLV
T7 sequence (P19438 whole entry): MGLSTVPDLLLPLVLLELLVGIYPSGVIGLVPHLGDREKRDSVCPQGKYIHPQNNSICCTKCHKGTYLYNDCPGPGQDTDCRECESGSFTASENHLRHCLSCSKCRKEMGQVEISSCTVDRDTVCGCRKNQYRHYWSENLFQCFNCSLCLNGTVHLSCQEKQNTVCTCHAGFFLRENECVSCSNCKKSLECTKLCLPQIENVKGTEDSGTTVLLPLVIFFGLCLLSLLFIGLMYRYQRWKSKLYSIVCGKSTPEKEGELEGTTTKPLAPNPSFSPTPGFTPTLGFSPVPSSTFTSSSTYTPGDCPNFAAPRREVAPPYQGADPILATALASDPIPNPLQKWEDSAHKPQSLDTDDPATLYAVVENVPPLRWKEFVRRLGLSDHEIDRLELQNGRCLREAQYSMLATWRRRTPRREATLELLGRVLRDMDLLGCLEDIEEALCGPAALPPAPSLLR

Binder | DC IL-12p70 secretion with LPS, EC50 (human CD40 on cells [1]) | B cell B7-1 (CD80), fold increase in median intensity at 1 µg/ml (human CD40 on cells [2]) | B cell B7-2 (CD86), fold increase in median intensity at 1 µg/ml (human CD40 on cells [2]) | B cell CD23, fold increase in median intensity at 1 µg/ml (human CD40 on cells [2]) | B cell ICAM (CD54), fold increase in median intensity at 1 µg/ml (human CD40 on cells [2]) | B cell MHC Class II, fold increase in median intensity at 1 µg/ml (human CD40 on cells [2]) | CD40 specific signal over the signal for this molecule (4-1BB/Ig) | DC B7-1 (CD80), fold increase in median intensity at 1 µg/ml, 72 h (human CD40 on cells [3]) | DC B7-2 (CD86), fold increase in median intensity at 1 µg/ml, 72 h (human CD40 on cells [3]) | DC CD83, fold increase in median intensity at 1 µg/ml, 72 h (human CD40 on cells [3]) | DC ICAM (CD54), fold increase in median intensity at 1 µg/ml, 72 h (human CD40 on cells [3]) | DC MHC Class II, fold increase in median intensity at 1 µg/ml, 72 h (human CD40 on cells [3]) | Allo DC/T IFNγ secretion, EC50 (human CD40 on cells [4]) | binding result (dog CD40 on blood cells) | binding result [5] | binding result (rat CD40 on blood cells) | CD40 specific signal over the signal for this molecule (RANK/Ig) | CD40 specific signal over the signal for this molecule (TNFR-2/Ig) | CD40 specific signal over the signal for this molecule (TNFR-1/Ig) | Kd [6] | other results
monoclonal antibody 23.5.1 (antibody, human IgG2, kappa, V domains shown, also called hybridoma 23.5.1 (LN 15855), ATCC PTA-4548) VH: QVQLVESGGGVVQPGRSLRLSCVASGFTFSNYGMHWVRQAPGKGLEWVAIISYDGSNKYYADSVKGRFTISRDNSKNTLYVQMNSLRAEDTAVYYCARRGHYGRDYYSYYGLDVWGQGTTVTVSS VL: not shown | 0.1 µg/mL | 1.4 fold | 1 fold | 1.1 fold | 1.1 fold | 1.4 fold | ≥ 100 fold | 1.1 fold | 10.7 fold | 9.2 fold | 1.2 fold | 2.3 fold | 0.2 µg/mL | no binding | no binding | no binding | ≥ 100 fold | ≥ 100 fold | ≥ 100 fold |  | 
monoclonal antibody 22.1.1 (antibody, human IgG2, kappa, V domains shown, Human IgG2 kappa from hybridoma; also called hybridoma 22.1.1 (LN 15875), ATCC PTA-4550) VH: QVQLVESGGGVVQPGRSLRLSCAASGFTFSRYGMHWVRQAPGKGLEWVAVISSDGGNKYYADSVKGRFTISRDNSKNTLYLQMNSLRAEDTAVYYCTRRGTGKTYYHYCGMDVWGQGTTVTVSS VL: not shown | 0.1 µg/mL | 1.2 fold | 1 fold | 1.3 fold | 1.1 fold | 1.4 fold | ≥ 100 fold | 1.4 fold | 16.3 fold | 12 fold | 1.6 fold | 2.3 fold | 0.3 µg/mL | no binding | no binding | no binding | ≥ 100 fold | ≥ 100 fold | ≥ 100 fold | 0.279 nM | koff [6]: 0.000155 s⁻¹; kon [6]: 955000 M⁻¹ s⁻¹
monoclonal antibody 3.1.1 (antibody, human IgG2, kappa, V domains shown, also called mAb 3.1.1; hybridoma 3.1.1 (LN 15848), ATCC PTA-3600) VH: QVQLVESGGGVVQPGRSLRLSCAASGFTFSSYGMHWVRQAPGKGLEWVAVISKDGGNKYHADSVKGRFTISRDNSKNALYLQMNSLRVEDTAVYYCVRRGHQLVLGYYYYNGLDVWGQGTTVTVSS VL: DIVLTQSPLSLPVTPGEPASISCRSSQSLLYSNGYNFLDWYLQKPGQSPQLLIYLGSNRASGVPDRFSGSGSGTDFTLKISRLEAEDVGVYYCMQALQTPRTFGQGTKVEIKR | 0.2 µg/mL | 1.7 fold | 1.2 fold | 5.6 fold | 1.3 fold | 3.2 fold | ≥ 100 fold | 1.8 fold | 23.7 fold | 15.2 fold | 1.5 fold | 4.4 fold | 0.1 µg/mL | no binding | no binding | no binding | ≥ 100 fold | ≥ 100 fold | ≥ 100 fold | 0.0395 nM | koff [6]: 3.31e-05 s⁻¹; kon [6]: 1.12e+06 M⁻¹ s⁻¹
monoclonal antibody 21.2.1 (antibody, human IgG2, kappa, V domains shown, Human IgG2 kappa from hybridoma) VH: QVQLVESGGGVVQPGRSLRLSCAASGFTFSSYVMHWVRQAPGKGLEWVAVMSYDGSSKYYANSVKGRFTISRDNSKNTLYLQINSLRAEDTAVYYCARDGGKAVPGPDYWGQGILVTVSS VL: not shown | 0.03 µg/mL | 0.9 fold | 1 fold | 1 fold | 1.3 fold | 1.2 fold | ≥ 100 fold | 0.9 fold | 7.4 fold | 10.8 fold | 1.5 fold | 1.8 fold | 0.03 µg/mL | no binding | no binding | no binding | ≥ 100 fold | ≥ 100 fold | ≥ 100 fold |  | 
monoclonal antibody 15.1.1 (antibody, human IgG2, kappa, V domains shown, Human IgG2 kappa from hybridoma; also called hybridoma 15.1.1 (LN 15851), ATCC PTA-3603) VH: QVQLQESGPGLVKPSETLSLTCTVSGGSIRSYYWTWIRQPPGKGLEWIGYIYYSGSTNYNPSLKSRVTISVDMSKNQFSLKLSSVTAADTAVYYCARKGDYGGNFNYFHQWGQGTLVTVSS VL: not shown |  |  |  |  |  |  | ≥ 100 fold |  |  |  |  |  |  | no binding | no binding | no binding | ≥ 100 fold | ≥ 100 fold | ≥ 100 fold | 0.00405 nM | koff [6]: 2.83e-07 s⁻¹; kon [6]: 83000 M⁻¹ s⁻¹
monoclonal antibody 10.8.3 (antibody, human IgG2, kappa, V domains shown, Human IgG2 kappa from hybridoma) VH: QVQLQESGPGLVKPSETLSLTCTVSGGSISSYYWIWIRQPAGKGLEWIGRVYTSGSTNYNPSLKSRVTMSVDTSKNQFSLKLSSVTAADTAVYYCARDGLYRGYGMDVWGQGTTVTVSS VL: DIQMTQSPSSVSASVGDRVTITCRASQPISSWLAWYQQKPGKAPKLLIYSASGLQSGVPSRFSGSGSGTDFTLTISSLQPEDFATYYCQQTDSFPLTFGGGTKVEIKR |  |  |  |  |  |  | ≥ 100 fold |  |  |  |  |  |  | no binding | no binding | no binding | ≥ 100 fold | ≥ 100 fold | ≥ 100 fold | 0.00223 nM | koff [6]: 4.48e-07 s⁻¹; kon [6]: 222000 M⁻¹ s⁻¹
